Assay results taken from paper PMC2920259 (Nature structural & molecular biology, 2010).

Target: the molecule itself
Assay: crystal structure

B1: IbpAFic2^H3717A (domain or fragment, Histophilus somni, UniProt Q06277 3482-3797, looked up)
chain: DETANKVNYQDLEDNLNLKGLISLEDDRNANFESNVLKNEKFLDEAREISKKSIPEATVKQMSHLPEFDDILTEGAKKVESRINKAITFRPSVEEFSEIQDLVKTLPKTKVIEDLSTKTNEITEALAATSKTIQRTPELKEQLKTAIEDFLQNSQGKPLTVQMIENLNHGLRPDEGEGRLLYKKENLTKENAVFSSPEAAKIQLAETVDFINRAKNEGIEPSVVGALVYQRLIAYAPFAEGNGRMARVIVNKILLDAGYPAFTKFSDEFEPQIIPQTKASTKSATSSEVVVEFLKELAKKGSKEDNEQNLEKTDRT
binding result: binds
